The values below come from article PMC11164899, “A novel inhibitory BAK antibody enables assessment of non-activated BAK in cancer cells” (Cell Death and Differentiation, 2024).

The target of test [1] is T1, mBAKΔN20ΔC25Δcys (Mus musculus, stabilised).
T1 construct: BAK, mouse, lacking the N-terminal 20 and the C-terminal 25 residues; wild-type cysteine residues replaced with serine; also called mouse BAK; source: E. coli BL21 (DE3), purified (glutathione resin, HRV-3C cleavage, SEC Superdex S75)
T1 chain: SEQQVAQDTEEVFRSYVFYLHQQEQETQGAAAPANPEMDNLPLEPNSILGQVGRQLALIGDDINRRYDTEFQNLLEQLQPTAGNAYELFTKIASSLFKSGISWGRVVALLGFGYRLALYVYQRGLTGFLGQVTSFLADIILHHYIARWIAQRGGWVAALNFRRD
The test is described as follows: SPR; 14G6 (about 150 RU) captured on a Protein A chip; BAK injected in a threefold dilution series (0.45-1000 nM), single-cycle kinetics; 25 °C, DPBS + 0.005% Tween-20; 1:1 binding model; mean ± SD of three experiments. The settings on record: both partners purified. A general note: SPR reads the build-up and loss of mass on a sensor chip optically.

Test [2] concerns the target T2, hBAKΔN22ΔC25Δcys M60W (Homo sapiens, M60W | Δcys (cysteine to serine; position C166 from memory, not given)).
T2 construct: BAK, human, ΔN22ΔC25, wild-type cysteine residues replaced with serine, M60W; also called hBAK M60W; BAK M60W; source: E. coli BL21 (DE3), purified (glutathione resin, HRV-3C cleavage, SEC Superdex S75)
T2 chain: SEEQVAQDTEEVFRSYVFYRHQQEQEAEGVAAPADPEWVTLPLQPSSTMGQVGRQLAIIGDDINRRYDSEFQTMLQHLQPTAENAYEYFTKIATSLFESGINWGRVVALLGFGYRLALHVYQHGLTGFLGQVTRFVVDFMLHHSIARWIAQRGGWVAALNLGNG
The description is as above. Particulars: both partners purified.

In test [3] the target is T3, hBAKΔN22ΔC25Δcys M60G (Homo sapiens, M60G | Δcys (cysteine to serine; position C166 from memory, not given)).
T3 construct: BAK, human, ΔN22ΔC25, wild-type cysteine residues replaced with serine, M60G; also called hBAK M60G; BAK M60G; source: E. coli BL21 (DE3), purified (glutathione resin, HRV-3C cleavage, SEC Superdex S75)
T3 chain: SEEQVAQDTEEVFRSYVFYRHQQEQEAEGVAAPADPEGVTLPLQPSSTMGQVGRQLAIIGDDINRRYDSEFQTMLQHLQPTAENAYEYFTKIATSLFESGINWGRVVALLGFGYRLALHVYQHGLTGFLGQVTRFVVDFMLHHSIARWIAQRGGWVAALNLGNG
Described as above. The settings on record: both partners purified.

The target of test [4] is T4, hBAKΔN22ΔC25Δcys (Homo sapiens, Δcys (cysteine to serine; position C166 from memory, not given)).
T4 construct: BAK, human, lacking the N-terminal 22 residues and the C-terminal 25 residues (transmembrane anchor); wild-type cysteine residues replaced with serine; also called BAKΔTM; source: E. coli BL21 (DE3), purified (glutathione resin, HRV-3C cleavage, SEC Superdex S75)
T4 chain: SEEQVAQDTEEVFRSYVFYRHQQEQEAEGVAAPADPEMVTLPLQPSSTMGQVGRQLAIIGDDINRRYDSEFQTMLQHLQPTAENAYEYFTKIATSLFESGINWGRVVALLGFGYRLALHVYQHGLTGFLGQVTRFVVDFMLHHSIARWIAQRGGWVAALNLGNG
The test is described as above. The settings on record: both partners purified.

Test [5] has as its target T5, human BAK, full-length, in mitochondria-enriched membrane fractions of bak−/−bax−/− MEFs (Homo sapiens, UniProt Q16611).
T5 construct: BAK, human, full-length; also called hBAK; source: stably expressed in SV40-immortalized bak−/−bax−/− MEFs; permeabilized cells or membrane fractions, solubilized in 1% digitonin for IP and BN-PAGE
Description: immunoprecipitation; membrane fractions of MEFs expressing hBAK, no cBID, solubilized in 1% digitonin, pre-cleared; Protein G Sepharose with 4 μg antibody, 4 °C, 1-2 h; blot for BAK. Particulars: one partner purified.

For test [6], the target named is T6, BAK, endogenous, in human leukaemia cell lines (Homo sapiens, UniProt Q16611).
T6 construct: BAK, endogenous in blood cancer cell lines established from patients with ALL or AML; the methods list RS4;11, MOLM-13, KG-1, HL-60, OCI-AML3, MV4;11 and THP-1; source: endogenous, membrane fractions of human ALL and AML cell lines, solubilized in 1% digitonin
T6 sequence (Q16611 whole entry): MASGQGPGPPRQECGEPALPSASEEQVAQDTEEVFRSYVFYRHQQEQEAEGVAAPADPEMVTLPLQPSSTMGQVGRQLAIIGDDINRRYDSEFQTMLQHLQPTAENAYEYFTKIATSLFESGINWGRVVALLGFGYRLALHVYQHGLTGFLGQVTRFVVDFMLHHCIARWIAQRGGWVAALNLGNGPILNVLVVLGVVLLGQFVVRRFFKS
Description: native gel or EMSA; untreated membrane fractions incubated with antibody on ice for 30 min, solubilized with 1% digitonin, BN-PAGE, blot for BAK (gel-shift). The settings on record: one partner purified. In general terms: Mobility shift assays separate free from complexed probe on a gel.

Test [7] deals with T4, hBAKΔN22ΔC25Δcys. The test is described as follows: SEC; 14G6 Fab mixed with a 1.5-fold excess of BAKΔTM; Superdex 200 Increase 10/300 in TBS; complex of ca 65 kDa. Particulars: both partners purified. A general note: SEC sorts molecules by how far they enter the pores of the column.

B1: 14G6 antibody (antibody, V domains shown)
VH: EVKLVESGAELVRPGTSVKVSCKASGYAFTNYLIEWVKQRPGQGLEWIGVINPGSGGTNYNEKFKGKATLTADKSSSTAYMQLTSLTSDDSAVYFCASPSLYGSFDYWGQGTTVTVSS
VL: DIVMTQSHKFMSTSVGDRVSITCKASQDVGTAVAWYQQKPGQSPKLLIYWASTRHTGVPDRFTGSGSGTDFTLTISNVQSEDLADYFCQQYSSYRTFGGGTKLEIK
notes: mouse variable region, human constant region; The results call it a chimera with human constant regions; the immunoprecipitation methods call it '14G6 mouse monoclonal antibody'; Used as an AF488 conjugate for immunocytochemistry; also called clone 14G6; 14G6-AF488; source: mouse B cell cloning; recovered antibody variable regions expressed as chimeras containing human constant regions; copies: 2 …
Turning to B1, the Kd in test [1] is 1140 nM; in test [2] it was 9 nM; in test [3], 0.6 nM; in test [4], 10 nM. For the same molecule, the koff in test [1] came out at 0.00092 s⁻¹; in test [2] it was 5e-05 s⁻¹; in test [3] it was 7e-05 s⁻¹; in test [4] it was 7e-05 s⁻¹. The association rate constant (kon) came to 810 M⁻¹ s⁻¹ in test [1], 4900 M⁻¹ s⁻¹ in test [2], 110000 M⁻¹ s⁻¹ in test [3] and 6000 M⁻¹ s⁻¹ in test [4]. Besides, the binding result in test [5] and in test [6] was “binds” in each case.

B2: 14G6 Fab (Fab, V domains shown)
VH: EVKLVESGAELVRPGTSVKVSCKASGYAFTNYLIEWVKQRPGQGLEWIGVINPGSGGTNYNEKFKGKATLTADKSSSTAYMQLTSLTSDDSAVYFCASPSLYGSFDYWGQGTTVTVSS
VL: DIVMTQSHKFMSTSVGDRVSITCKASQDVGTAVAWYQQKPGQSPKLLIYWASTRHTGVPDRFTGSGSGTDFTLTISNVQSEDLADYFCQQYSSYRTFGGGTKLEIK
notes: Fab part of the heavy chain of m1; as the light chain of m1; also called Fab fragment of antibody 14G6; source: papain cleavage of the full-length antibody, purified by cation exchange (Mono S)
Consider B2, for which, in test [7], the “stoichiometry N” value amounted to 1.

Broadly, the Kd is the constant that tells how readily two partners part at equilibrium. As usually defined, the koff is a measure of how fast the partners let go of each other. The term kon denotes the second-order rate constant of association. In general, stoichiometry N refers to the number of molecules, sites or subunits per partner or assembly.
